Assay: yeast display, Sf9 membrane polyspecificity reagent, FACS + sequencing; frameworks hold sequencing errors
How it was run: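 Synthetic nanobody libraries on Saccharomyces cerevisiae BJ5465 were galactose-induced for 36–48 hours, stained 1 hour at 4 °C with 10% biotinylated, detergent-solubilized Sf9 membrane reagent and enriched on streptavidin microbeads. FACS then separated cells into low and high (top ~1%) gates by anti-HA (expression) and streptavidin (reagent binding) fluorescence. Genes were colony-PCR amplified, MiSeq 2 × 250 sequenced and CDR-length filtered. A clone's polyreactivity label is that of its gate of origin.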

Row | Sequence | polyreactivity (PSR sort gate)
1 | QVQLVESGGGLVQAGGSLRLSCAASGRNFKFYAMGWYRQAPGKERELVAGINTDGGSTYYADSVKGRFTISRDNAKNTVYLQMNSLKPEDTAVYYCNAYYYKPARKYARHYDYWGQGTQVTVSS | low polyreactivity
2 | QVQLVESGGGLVQAGGSLRLSCAASGRNFKIYTMGWYRQAPGKERELVAAISSSGRTYYADSVKGRFTISRDNAKNTVYLQMNSLKPEDTAVYYCAAVPYTRWKGADGDYWGQGTQVTVSS | high polyreactivity
3 | QVQLVESGGGLVQAGGSLRLSCAASGRNFLVYAMGWYRQAPGKERELVAAITYSDGSTYYADSVKGRFTISRDNAKNTVYLQMNSLKPEDTAVYYCAADSSTFPSDYYWGKGTQVTVSS | low polyreactivity
4 | QVQLVESGGGLVQAGGSLRLSCAASGRNFPLNAMGWYRQAPWKERELVAAISIGGSTYYADSVKGRFTISRDNPKNTVYLQMNSLKPDETAVYYCAAVWYTSRQKYDYWGQGTQVTVSS | low polyreactivity
5 | QVQLVESGGGLVQAGGSLRLSCAASGRNFRANAMGWSRQEPGKERELVASITYSGGSTYYADSVKGRFTISRDNAKNTVYVQMNSLKPEDTAVYYCARAGISSGGYYYWGQGTQVTVSS | low polyreactivity
6 | QVQLVESGGGLVQAGGSLRLSCAASGRNFRDYTMGWYRQAPGKERELVAAITSTGDTNYADSVKGRFTISRDNAKNTVYLQMNSLKPEDTAVYYCATQTGEEYQAPLIYDYWGQGTQVTVSS | low polyreactivity
7 | QVQLVESGGGLVQAGGSLRLSCAASGRNFSYYAMGWYRQAPGKERELVAAISWNGGSTYYADSVKGRFTISRDNAKNTVYLQMNSLKPEDTAVYYCAVLPHYEYDYWGQGTQVTVSS | high polyreactivity
8 | QVQLVESGGGLVQAGGSLRLSCAASGRNFTIYAMGWYRQAPGKERELVATISSNVGSTYYADSVKGRFTISRDNAKNTVYLQMNSLKPEDTAVYYCNVVPYLYGLDGYDYWGQGTQVTVSS | high polyreactivity
9 | QVQLVESGGGLVQAGGSLRLSCAASGRNFTSNSMGLYRQAPGKEREFVAAITTSGASTRYADSVKGRFTISRDNAKNTVYLQMNSLKPEDTAVYYCAAEQRRFTGYDYWGQGTQVTVSS | high polyreactivity
10 | QVQLVESGGGLVQAGGSLRLSCAASGRNFVRYTMGWYRQAPGKERELVAAISGSGSSTFYADSVKGRFTISRDNAKNTVYLQMNSLKPEDTAVYYCAARVRRVARDPYDYWGQGTQVTVSS | high polyreactivity
11 | QVQLVESGGGLVQAGGSLRLSCAASGRNFVTNAMGWYRQAPGKERELVAAITRGGNTNYADSVKGRFTISRDNAKNTVYLQMNSLKPEDSAVYYCAADTSYYYVYGYFPGYYYWGQGTQVTVSS | low polyreactivity
12 | QVQLVESGGGLVQAGGSLRLSCAASGRNFYLYGMGWYRQAPGKERELVAAIDWSDGSTYYADSVKGRFTISRDNAKNTVYLQMNSLKPEDTAVYYCAADGWAAWLYDYWGQGTQVTVSS | low polyreactivity
13 | QVQLVESGGGLVQAGGSLRLSCAASGRNFYPYAMVWYRQAPGKERELVAAISKSGGRTYYADSVKGRFTISRDNAKNTVDLQMNSLKPEDTAVYYCNAAPGYTYVTYDYWGQGTLVTVSS | high polyreactivity
14 | QVQLVESGGGLVQAGGSLRLSCAASGRNFYRYAMGRYREAPGKERELVAAIRYSGGRTYYADSVKGRFTISRDNAKNTFYLQMNSLKPEDTAVYYCASDGQWYYAPFRGGDYENDYWGQGTQVTLSS | low polyreactivity
15 | QVQLVESGGGLVQAGGSLRLSCAASGRNFYVYTMGWYRQAPGKERELVAAISWSGGSTHHADSVKGRFTISRDNAKNTVYLQMNSLKPEDTAVYYCNKGVVSRVAFEYWGQGTQVTVSS | low polyreactivity
16 | QVQLVESGGGLVQAGGSLRLSCAASGRNFYYNAMGWYRPAPGKERELVAAISSGGSTTYADSVKGRFTISRDNAKNTVYLQLNSLKPEDTAVYYCNADISAHYVIGVPTGYYWGQGTQVTVSS | low polyreactivity
17 | QVQLVESGGGLVQAGGSLRLSCAASGRNIVGYAMGWYIQAPGKERELVAAITKSGGRTYYADSVKGRFTISRDNAKNTVYLQMNSLKPEDTAVYYCAVLNSKWNEYDYWGQGTQVTVSS | high polyreactivity
18 | QVQLVESGGGLVQAGGSLRLSCAASGRNIYSNAMGWYRQAPGKERELVAAIRWRDGSTYYADSVKGRFTISRDNAKNTVFLQMNSLKPVDTAVYYCAAVYWGEEYEYWGQGTQVTVSS | low polyreactivity
19 | QVQLVESGGGLVQAGGSLRLSCAASGRNLQNYAMGWYRQPPGKERELVAAISFSGGRTNYADSVKGRFTISRDNAKNTVYLQMKSLNPEDTAVYYCAKVYRRSGSVSRYDYWGQGTQVTVSS | high polyreactivity
20 | QVQLVESGGGLVQAGGSLRLSCAASGRNLVQYTMGWYRQAPGKERELVAVISWRECRTYYADSVKGRFTISRDNAKNTVFLQMNSLKPVDTAVYYCATSGSFWQRYYWGQGTQVTVSS | low polyreactivity
21 | QVQLVESGGGLVQAGGSLRLSCAASGRNSLYYTMGWYRQAPGKEREFVAAISSTGGSTYYADSVKGRFTISRDNAKNTVYLLMNSLKPVDTAVYYCNKVYGGGTYDYWGQGTQVTVSS | low polyreactivity
22 | QVQLVESGGGLVQAGGSLRLSCAASGRPFSSYAMGWYRQAPGKERELVARINSDGGRTYYADSVKGRFTISRDNAKDTVYLQMNSLKPEDTAVYYCAKRVVRGKVDYWGQGTQVTVSS | low polyreactivity
23 | QVQLVESGGGLVQAGGSLRLSCAASGRSFGLYVMGWYRQAPGKERELVAAITGVGSTKYADSVKGRFTISRDNAKNTVYLQMNSLKPEDTEVYYCAKRYLYDRRHAEYWAANDYWGQGTQVTVSS | low polyreactivity
24 | QVQLVESGGGLVQAGGSLRLSCAASGRSFRYNTMGWYRQAPGKERELVAAITKGAATTYYADSVKGRFTISRDNAKNTVYLKMTSLKPEDTAVYYCNAVYSRIVTQKYWGQGTQVTVSS | high polyreactivity
25 | QVQLVESGGGLVQAGGSLRLSCAASGRSFRYYAMGWYRQAPGKERELVAAISVSGGTTYYADSVKGRFTISRDNAKNTVYLQMNSLKPEDTAVYYCNAYYLAEYDYWGQGTQVTVSS | high polyreactivity
26 | QVQLVESGGGLVQAGGSLRLSCAASGRSFYLYAMGWYRQAPGKERELVAGITSGGRTNYADSVKGRFTISRDNAKNTVYLQMNSLKPEDTAVYYCAAGSRRYKYDYWGQGTQVTVSS | high polyreactivity
27 | QVQLVESGGGLVQAGGSLRLSCAASGRTALIYAMGWYRQAPGKERELVAAITASGGNTDYADSVKGRFTISRDNAMNTVYLQMNSLKPEDTAVYYCNKSRYDGGSGYDYWGQGTQVTVSS | low polyreactivity
28 | QVQLVESGGGLVQAGGSLRLSCAASGRTCGRYAMGWYRQAPGKERELVADISWNGGRTYYADSVKGRFTISRDNAKNTVYLKMNSLKPEDSAVYYCAKRFSPRYYYWGQGTQVTVSS | high polyreactivity
29 | QVQLVESGGGLVQAGGSLRLSCAASGRTFAAYAMGWYRQAPGKERELVAAISRGGGRTYYADSVKGRFTISRDNAKNTVYLQMNSLKPEDTAVYYCNAVRPRDNGSWGQGTQVTVSS | high polyreactivity
30 | QVQLVESGGGLVQAGGSLRLSCAASGRTFAGYAMGWYRQAPGKERELVAAISGSGGRTYYADSVKGRFTISRDYAKNTVYLQMNSLKPEDTAVYYCAASQRVYIARSDYWGQGSQVTVSS | high polyreactivity
